Substitutions are numbered along the chain they refer to.
T1: HisMBP-REST/DBD (UniProt Q13127 159-412)
T1 sequence: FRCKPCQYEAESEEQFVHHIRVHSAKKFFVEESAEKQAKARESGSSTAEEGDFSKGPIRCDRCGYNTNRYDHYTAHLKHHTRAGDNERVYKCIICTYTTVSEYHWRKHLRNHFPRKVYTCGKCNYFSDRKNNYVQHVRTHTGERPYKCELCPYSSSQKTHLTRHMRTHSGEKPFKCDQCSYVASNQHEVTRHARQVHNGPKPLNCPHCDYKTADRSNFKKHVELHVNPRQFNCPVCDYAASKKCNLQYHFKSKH

B1: Ideal RE1 (Chrm4) (dsDNA)
DNA 1: TCAGCCTCTCTTCAGCACCTCGGACAGCTCCGGACCTCTC
DNA 2: GAGAGGTCCGGAGCTGTCCGAGGTGCTGAAGAGAGGCTGA
B2: Mutated RE1 (Mut) (dsDNA)
DNA 1: B1 DNA 1 with C18G, C19G, G22C, G23C
DNA 2: B1 DNA 2 with C18G, C19G, G22C, G23C

Columns and labels:
HisMBP-REST/DBD [1] = biological target: T1, HisMBP-REST/DBD; test: competition EMSA; 10 mM Tris-HCl pH 8.0, 100 mM KCl, 50 uM ZnCl2 (printed '50 M ZnCl', symbols lost), 2 mM 2-mercaptoethanol, 10% glycerol, 0.1% NP-40, 0.1 mg/ml BSA; 0.5 nM probe, 150 nM competitor, 40 nM protein, 1 h; temperature lost in text; settings: protein: recombinant; tags: His-MBP
HisMBP-REST/DBD [2] = biological target: T1, HisMBP-REST/DBD; test: competition; 10 mM Tris-HCl pH 8.0, 100 mM KCl, 50 uM ZnCl2 (printed '50 M ZnCl', symbols lost), 2 mM 2-mercaptoethanol, 10% glycerol, 0.1% NP-40, 0.1 mg/ml BSA; 0.5 nM probe, 150 nM competitor, 40 nM protein, 1 h; temperature lost in text; settings: protein: recombinant; tags: His-MBP

Row | Binder | binding result (HisMBP-REST/DBD [1]) | binding result (HisMBP-REST/DBD [2])
1 | B1 | binds | 
2 | B2 |  | no binding
